We go through 21 molecules from US20220372138A1 (IOMX THERAPEUTICS, published 2022).

Test [1] has as its target T1, ECD of murine IGSF11, recombinant biotinylated (mouse, UniProt P0C673 23-240).
T1 construct: whole entry named; also called Mouse IGSF11
T1 sequence: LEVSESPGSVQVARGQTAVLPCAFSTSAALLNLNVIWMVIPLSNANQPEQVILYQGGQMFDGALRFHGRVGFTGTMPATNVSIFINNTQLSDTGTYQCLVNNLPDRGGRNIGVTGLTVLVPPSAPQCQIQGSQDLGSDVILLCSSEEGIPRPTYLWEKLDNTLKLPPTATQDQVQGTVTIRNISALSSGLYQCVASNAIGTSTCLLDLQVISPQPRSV
Put plainly: ELISA RFU 0.1-0.5.

Test [2] deals with T2, extracellular domain (ECD) of human IGSF11 (VSIG3), recombinant (human, UniProt Q5DX21 23-241).
T2 construct: biotinylated where captured on streptavidin; tags of the reagent not always stated; also called IGSF11 (ECD domain); ECD-IGSF11
T2 sequence: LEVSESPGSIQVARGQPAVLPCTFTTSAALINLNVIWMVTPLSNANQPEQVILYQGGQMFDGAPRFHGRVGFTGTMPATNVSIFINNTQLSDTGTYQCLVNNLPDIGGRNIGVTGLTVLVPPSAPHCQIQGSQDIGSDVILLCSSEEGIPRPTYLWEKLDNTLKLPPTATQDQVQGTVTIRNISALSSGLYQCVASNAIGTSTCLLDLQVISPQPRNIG
Put plainly: ELISA RFU 0.5-1.0.

A further test has as its target Streptavidin (UniProt P22629 37-163, limits assumed). Put plainly: Fab ELISA.
The target of test [3] is T3, full-length ECD of human IGSF11 fused to murine Fc (human, UniProt Q5DX21 23-241).
T3 construct: also called Fc-fusion IGSF11 ECD; not shown: murine Fc
T3 sequence: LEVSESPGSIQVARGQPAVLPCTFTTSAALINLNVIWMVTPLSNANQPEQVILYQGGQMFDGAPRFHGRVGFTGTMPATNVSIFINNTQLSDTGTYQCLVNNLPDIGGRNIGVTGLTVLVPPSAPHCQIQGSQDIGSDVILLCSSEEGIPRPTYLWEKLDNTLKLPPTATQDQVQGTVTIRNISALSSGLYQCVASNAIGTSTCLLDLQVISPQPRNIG
Briefly: IgG ELISA.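 Further: ELISA binding of IgG antibodies to plate-coated IGSF11 Fc-fusion proteins (full-length ECD, IgV or IgC2 domain), detected via HRP-labelled anti-human IgG with TMB development.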

In test [4] the target is T4, IgC2 domain of human IGSF11 fused to murine IgG2a Fc (human, UniProt Q5DX21 137-241).
T4 construct: not shown: murine IgG2a Fc-region
T4 sequence: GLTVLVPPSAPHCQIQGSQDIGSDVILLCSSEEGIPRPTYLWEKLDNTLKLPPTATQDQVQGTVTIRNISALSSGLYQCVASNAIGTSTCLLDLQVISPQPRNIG
Put plainly: IgG ELISA.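 Further: ELISA binding of IgG antibodies to plate-coated IGSF11 Fc-fusion proteins (full-length ECD, IgV or IgC2 domain), detected via HRP-labelled anti-human IgG with TMB development.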

Chain of Streptavidin (P22629 37-163 limits assumed): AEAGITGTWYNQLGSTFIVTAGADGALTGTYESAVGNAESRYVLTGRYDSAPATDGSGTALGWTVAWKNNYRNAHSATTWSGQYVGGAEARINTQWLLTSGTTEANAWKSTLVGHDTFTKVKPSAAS

B1: A-014 (scFv format) (scFv, V domains shown)
VH: QVQLVQSGAEVKKPGASVKVSCKASGYTFNDYYIHWVRQAPGQGLEWMGWFNPSTGGANYAQKFQGRVTMTRDTSISTAYLEVSSLRSDDTAVYYCARGNSPDLDYWGQGTLVTVSS
VL: DIQMTQSPDSLTVSLGERATINCKSSQSLLHSSNNKNYLAWYQQRPGQPPKLLIYWASTRQSGVPDRFSGSGSGTDFTLTINSLQADDMAVYYCQQYYTTTPNTFGQGTKLEIK
notes: scFv
For B1, the “ELISA binding signal (RFU)” value in test [1] lay within 0.1 to 0.5 rfu; in test [2] it was 0.5 to 1 rfu.

B2: A-023 (scFv format) (scFv, V domains shown)
VH: QVQLVQSGAEVKKPGSSVKVSCKASGGTFSSYAISWVRQAPGQGLEWMGGIIPIFGTANYAQKFQGRVTITADESTSTAYMELSSLRSEDTAVYYCARPKYSSGWFYYYGMDVWGQGTTVTVSS
VL: QSVLTQPPSVSAAPGQKVTISCSGSSSNIGNNYVSWYQQLPGTAPKLLIYDNNKRPSGIPDRFSGSKSGTSATLGITGLQTGDEADYYCGTWDSSLSVVFGGGTKLTVL
notes: scFv
Take B2: the “ELISA binding signal (RFU)” value in test [1] is 0.1 to 0.5 rfu; in test [2] it was 0.5 to 1 rfu.

B3: A-005 (scFv format) (scFv, V domains shown)
VH: EVQLVESGGGLIQPGGSLRLSCAASGFTVSSNYMSWVRQAPGKGLEWVSVIYSGGSTYYADSVKGRFTISRDNSKNTLYLQMNSLRAEDTAVYYCARGNPYYYGDLQVNFDYWGQGTLVTVSS
VL: QAVVTQEPSLTVSPGETVTLTCASSTGAVTSGYYPNWFQQRPGQAPRALIYSTSNKDSWTPARFSGSLLGGKAALTLSGVQPEDEAEYYCLLYYGGAWVFGGGTKLTVL
notes: scFv
Take B3: the entries for the “ELISA binding signal (RFU)” value in test [1] and in test [2] were 0.1 to 0.5 rfu and 0.5 to 1 rfu, respectively.

B4: A-002 (scFv format) (scFv, V domains shown)
VH: EVQLVESGGGLIQPGGSLRLSCAASGFTVSSNYMSWVRQAPGKGLEWVSVIYSGGSTYYADSVKGRFTISRDNSKNTLYLQMNSLRAEDTAVYYCARGNPYYYGDLQVNFDYWGQGTLVTVSS
VL: QAVVTQEPSLTVSPGGTVTPTCGSSTGAVTSGNLPNWFQQKPGQAPRALIYSTSNKHSWTPARISGSLLGGKAALTLSGVQPEDEAEYYCLLYYGGAWVFGGGTKLTVL
notes: scFv
For the molecule B4, the “ELISA binding signal (RFU)” value in test [1] was in the range of 0.1 to 0.5 rfu; in test [2], 0.5 to 1 rfu.

B5: C-008 (Fab format) (Fab, V domains shown)
VH: EVQLLESGGGLVQPGGSLRLSCAASGFTFSSYAMSWVRQAPGKGLEWVSAISGSGGSTYYADSVKGRFTISRDNSKNTLYLQMNSLRAEDTAVYYCTTDNGHNRDWGQGTLVTVSS
VL: ASVLTQPPSVSAAPGQKVTISCSGSSSNIGNNYVSWYQQLPGTAPKLLIYDNNKRPSGIPDRFSGSKSGTSATLGITGLQAEDEADYYCGTWTRSSGVFGGGTKLTVL
notes: Fab from E. coli lysate
In the test with Streptavidin, B5 registered an A450 of under 0.1.

B6: A-017 (scFv format) (scFv, V domains shown)
VH: QVQLVQSGAEVKKPGASVKVSCKASGYTFTGYYMHWVRQAPGQGLEWMGWINPNSGNTGYAQKFQGRVTMTRNTSISTAYMELSSLRSEDTAVYYCARGGQQQLVLDDYWGQGTLVTVSS
VL: DIVLTQSPASLSASVGDRITITCQASQDIRHHLNWFQHKPGKAPKLLISDSSNLETGVPSRFSGSGSGTDFSFTISRLQPEDIATYYCQQYDSLPRTFGQGTKLEIK
notes: scFv
As for B6, the figures for the “ELISA binding signal (RFU)” value in test [1] and in test [2] were 0.1 to 0.5 rfu and 0.5 to 1 rfu, respectively.

B7: C-006 (IgG1 format) (antibody, V domains shown)
VH: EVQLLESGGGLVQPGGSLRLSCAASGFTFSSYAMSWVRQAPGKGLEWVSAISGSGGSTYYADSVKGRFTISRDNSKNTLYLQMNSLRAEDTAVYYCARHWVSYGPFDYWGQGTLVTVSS
VL: DIQMTQSPSSLSASVGDRVTITCRASQSISSYLNWYQQKPGKAPKLLIYAASSLQSGVPSRFSGSGSGTDFTLTISSLQPEDFATYYCQQSHQSPPITFGQGTKVEIK
Consider B7, for which the EC50 in test [3] is 1 to 20 nM; in test [4] it was under 1 nM.

B8: C-022 (Fab format) (Fab, V domains shown)
VH: EVQLLESGGGLVQPGGSLRLSCAASGFTFSSYAMSWVRQAPGKGLEWVSAISGSGGSTYYADSVKGRFTISRDNSKNTLYLQMNSLRAEDTAAYYCARMAAGASWGTFDYWSQGTLVTVSS
VL: DIQMTQSPSSLSASVGDRVTITCRASQSISSYLNWYQQKPGKAPKLLIYAASSLQSGVPSRFSGSGSGTDFTLTISSLQPEDFATYYCQQRSGSPLTFGQGTKVEIK
notes: Fab from E. coli lysate
Take B8: the A450 with Streptavidin is under 0.1.

B9: C-021 (IgG1 format) (antibody, V domains shown)
VH: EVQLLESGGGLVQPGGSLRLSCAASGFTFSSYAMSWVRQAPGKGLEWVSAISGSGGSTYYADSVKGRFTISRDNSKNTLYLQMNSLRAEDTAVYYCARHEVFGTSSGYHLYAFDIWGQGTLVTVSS
VL: DIQMTQSPSSLSASVGDRVTITCRASQSISSYLNWYQQKPGKAPKLLIYAASSLQSGVPSRFSGSGSGTDFTLTISSLQPEDFATYYCQQWSGLPLTFGQGTKVEIK
As for B9, the EC50 in test [4] is under 1 nM.

B10: A-021 (scFv format) (scFv, V domains shown)
VH: QVQLVQSGAEVKKPGASVKVSCKASGYTFTSYGISWVRQAPGQGLEWMGWISAYNGNTNYAQKLQGRVTMTTDTSTSTAYMELRSLRSDDTAVYYCARVPAWSGQFDYWGQGTLVTVSS
VL: QSALTQPASVSGSPGQSITISCTGTSSDVGGYNYVSWYQQHPGKAPKLMIYEVTNRPSGVSDRFSGSKSANTASLTISELQAEDEAVYYCNSYTSGPTYVLFGGGTQLTVL
notes: scFv
B10: the “ELISA binding signal (RFU)” value in test [1] is 0.1 to 0.5 rfu; in test [2] it was 0.5 to 1 rfu.

B11: A-009 (scFv format) (scFv, V domains shown)
VH: QVQLVQSGAEVKKPGSSVKVSCKASGGTFSSYAISWVRQAPGQGLEWMGGIIPIFGTANYAQKFQGRVTITADESTSTAYMELSSLRSEDTAVYYCARGRGFGELYFDYWGQGTLVTVSS
VL: ETTLTQSPATLSVSPGERATLSCRASQGVRSNIAWYQQKPGQAPRLLIYDSSTRATGIPARFSGSGSGTEFTLTISSLQSEDFAVYSCQQYKNWPRTFGQGTKVEIK
notes: scFv
Consider B11, for which the “ELISA binding signal (RFU)” value was 0.1 to 0.5 rfu in test [1] and 0.5 to 1 rfu in test [2].

B12: C-007 (Fab format) (Fab, V domains shown)
VH: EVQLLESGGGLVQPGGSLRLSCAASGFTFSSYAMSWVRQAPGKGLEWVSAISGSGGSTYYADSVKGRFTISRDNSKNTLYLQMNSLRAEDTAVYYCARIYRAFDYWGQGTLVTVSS
VL: ASVLTQPPSVSAAPGQKVTISCSGSSSNIGNNYVSWYQQLPGTAPKLLIYDNNKRPSGIPDRFSGSKSGTSATLGITGLQAEDEADYYCQLYEEEHSTWVFGGGTKLTVL
notes: Fab from E. coli lysate
Turning to B12, the A450 in the test with Streptavidin is under 0.1.

B13: C-002 (IgG1 format) (antibody, V domains shown)
VH: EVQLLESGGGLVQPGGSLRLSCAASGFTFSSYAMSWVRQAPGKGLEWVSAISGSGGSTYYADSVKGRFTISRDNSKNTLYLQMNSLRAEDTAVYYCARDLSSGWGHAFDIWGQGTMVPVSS
VL: ASVLTQPPSVSAAPGQKVTISCSGSSSNIGNNYVSWYQQLPGTAPKLLIYDNNKRPSGIPDRFSGSKSGTSATLGITGLQAEDEADYYCLSYTTSEHHLVFGGGTKLTVL
For B13, the 50% effective concentration (EC50) was 1 to 20 nM in test [3] and under 1 nM in test [4].

B14: C-026 (Fab format) (Fab, V domains shown)
VH: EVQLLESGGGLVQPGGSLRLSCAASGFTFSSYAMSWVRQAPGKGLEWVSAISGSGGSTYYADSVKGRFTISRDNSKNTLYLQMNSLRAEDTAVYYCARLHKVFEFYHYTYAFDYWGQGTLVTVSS
VL: ASVLTQPPSVSAAPGQKVTISCSGSSSNIGNNYVSWYQQLPGTAPKLLIYDNNKRPSGIPDRFSGSKSGTSATLGITGLQAEDEADYYCASYSSETSGWVFGGGTKLTVL
notes: Fab from E. coli lysate
Take B14: in the test with Streptavidin, the A450 is under 0.1.

B15: C-001 (Fab format) (Fab, V domains shown)
VH: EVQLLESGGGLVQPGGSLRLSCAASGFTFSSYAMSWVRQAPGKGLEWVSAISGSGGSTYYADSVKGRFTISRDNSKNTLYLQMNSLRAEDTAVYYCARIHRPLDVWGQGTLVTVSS
VL: ASVLTQPPSVSAAPGQKVTISCSGSSSNIGNNYVSWYQQLPGTAPKLLIYDNNKRPSGIPDRFSGSKSGTSATLGITGLQAEDEADYYCGSWLEERSQYVFGGGTKLTVL
notes: Fab from E. coli lysate
In the case of B15, in the test with Streptavidin, the A450 was under 0.1.

B16: A-024 (scFv format) (scFv, V domains shown)
VH: QMQLVQSGAEVKKPGSSVKVSCKASGGTFSSYAISWVRQAPGQGLEWMGWISAYNGNTNYAQKLQGRVTMTTDTSTSTAYMELRSLRSDDTAVYYCASLGSYGYTGAFDIWGQGTMATVSS
VL: QSALTQPASVSGSPGQSITISCTGTSSDVGGYNYVSWYQQHPGKAPKLMIYEVSNRPSGVSNRFSGSKSGNTASLTISGLQAEDEADYYCSSYTSSSTLVVFGGGTKLTVL
B16: the “ELISA binding signal (RFU)” value in test [1] is 0.1 to 0.5 rfu; in test [2], 0.5 to 1 rfu.

B17: C-005 (Fab format) (Fab, V domains shown)
VH: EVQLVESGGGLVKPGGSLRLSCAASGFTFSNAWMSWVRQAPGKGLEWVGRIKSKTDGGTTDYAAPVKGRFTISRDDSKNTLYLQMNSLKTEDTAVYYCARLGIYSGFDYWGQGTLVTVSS
VL: SYELTQPPSVSVSPGQTASITCSGDKLGDKYASWYQQKPGQSPVLVIYQDSKRPSGIPERFSGSNSGNTATLTISGTQAEDEADYYCHSYTGKPSQVVFGGGTKLTVL
notes: Fab from E. coli lysate
In turn, B17 yielded an A450 with Streptavidin of under 0.1.

B18: C-009 (Fab format) (Fab, V domains shown)
VH: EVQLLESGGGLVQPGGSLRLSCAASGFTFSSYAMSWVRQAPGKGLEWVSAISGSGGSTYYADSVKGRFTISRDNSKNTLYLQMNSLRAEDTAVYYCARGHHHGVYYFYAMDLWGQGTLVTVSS
VL: SYELTQPPSVSVSPGQTASITCSGDKLGDKYASWYQQKPGQSPVLVIYQDSKRPSGIPERFSGSNSGNTATLTISGTQAEDEADYYCQSYSGSSTLHVFGGGTKLTVL
notes: Fab from E. coli lysate
Take B18: in the test with Streptavidin, the A450 is under 0.1.

B19: C-014 (IgG1 format) (antibody, V domains shown)
VH: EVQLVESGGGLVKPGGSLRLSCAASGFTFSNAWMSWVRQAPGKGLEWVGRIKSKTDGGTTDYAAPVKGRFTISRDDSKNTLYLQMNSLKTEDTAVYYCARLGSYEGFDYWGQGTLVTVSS
VL: SYELTQPPSVSVSPGQTASITCSGDKLGDKYASWYQQKPGQSPVLVIYQDSKRPSGIPERFSGSNSGNTATLTISGTQAEDEADYYCSTYTVTSSVVVFGGGTKLTVL
Take B19: the EC50 in test [3] is 1 to 20 nM; in test [4] it was under 1 nM.

B20: C-013 (IgG1 format) (antibody, V domains shown)
VH: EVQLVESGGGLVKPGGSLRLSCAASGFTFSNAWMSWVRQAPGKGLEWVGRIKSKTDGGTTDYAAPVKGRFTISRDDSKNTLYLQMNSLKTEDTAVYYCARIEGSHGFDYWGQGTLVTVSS
VL: SYELTQPPSVSVSPGQTASITCSGDKLGDKYASWYQQKPGQSPVLVIYQDSKRPSGIPERFSGSNSGNTATLTISGTQAEDEADYYCASYLHTPKQFVFGGGTKLTVL
Regarding B20, the EC50 is 1 to 20 nM in test [3] and under 1 nM in test [4].

B21: C-023 (IgG1 format) (antibody, V domains shown)
VH: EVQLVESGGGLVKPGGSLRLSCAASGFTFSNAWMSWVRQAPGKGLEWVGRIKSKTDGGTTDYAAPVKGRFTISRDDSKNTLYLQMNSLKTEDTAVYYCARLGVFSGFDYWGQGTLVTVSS
VL: SYELTQPPSVSVSPGQTASITCSGDKLGDKYASWYQQKPGQSPVLVIYQDSKRPSGIPERFSGSNSGNTATLTISGTQAEDEADYYCHTWTHHSLAVVFGGGTKLTVL
Take B21: the concentration for a half-maximal effect (EC50) in test [3] and in test [4] was under 1 nM in each case.
